Test results taken from paper doi:10.1101/521351 (bioRxiv, 2019).

Columns and labels:
[1] = molecular target: ICA512 RESP18HD (regulated endocrine-specific protein 18 homology domain of ICA512, residues 35-131) (human) (UniProt Q16849); experiment: co-sedimentation
light scattering = molecular target: the molecule itself; experiment: light scattering

Row | Molecule | stoichiometry N ([1]; scale: mole of insulin per mole of ICA512 RESP18HD) | stoichiometry N ([1]; scale: moles of insulin per mole of ICA512 RESP18HD) | binding result (light scattering)
1 | Human insulin (ligand) | 0.4 | 2.8 | 
2 | ICA512 RESP18HD (regulated endocrine-specific protein 18 homology domain of ICA512, residues 35-131) (domain or fragment, human, UniProt Q16849 35-131, looked up) VSAHGCLFDRRLCSHLEVCIQDGLFGQCQVGVGQARPLLQVTSPVLQRLQGVLRQLMSQGLSWHDDLTQYVISQEMERIPRLRPPEPRPRDRSGLAP |  |  | binds
